Test results published in US20190177411.

How the values were obtained:
[1] = molecular target: purified recombinant His-tagged PDK4 (Abcam), Q16654
[2] = molecular target: purified recombinant His-tagged PDK3 (Abcam), Q15120
[3] = molecular target: Flag-tagged wild type (WT) PDK1 (not specifically T346-phosphorylated: from normoxic PC3 cells, or dephosphorylated before the kinase assay)
[4] = molecular target: purified recombinant His-tagged PDK1 (Abcam)
[5] = molecular target: purified recombinant His-tagged PDK2 (Abcam), Q15119
[6] = molecular target: Flag-tagged T346A PDK1 mutant
Sequence of Flag-tagged T346A PDK1 mutant (chain, as listed by the source T346A): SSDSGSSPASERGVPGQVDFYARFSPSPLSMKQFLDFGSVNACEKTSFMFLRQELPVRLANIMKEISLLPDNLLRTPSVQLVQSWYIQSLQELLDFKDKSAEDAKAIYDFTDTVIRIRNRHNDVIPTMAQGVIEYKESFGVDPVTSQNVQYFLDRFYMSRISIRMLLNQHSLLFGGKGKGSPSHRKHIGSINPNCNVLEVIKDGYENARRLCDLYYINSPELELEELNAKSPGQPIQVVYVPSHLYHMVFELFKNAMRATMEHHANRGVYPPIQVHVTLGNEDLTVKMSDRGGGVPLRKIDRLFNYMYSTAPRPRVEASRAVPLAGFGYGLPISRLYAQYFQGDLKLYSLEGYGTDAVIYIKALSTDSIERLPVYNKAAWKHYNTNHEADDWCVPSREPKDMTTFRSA

Sequence of purified recombinant His-tagged PDK1 (Abcam) (chain, as listed by the source): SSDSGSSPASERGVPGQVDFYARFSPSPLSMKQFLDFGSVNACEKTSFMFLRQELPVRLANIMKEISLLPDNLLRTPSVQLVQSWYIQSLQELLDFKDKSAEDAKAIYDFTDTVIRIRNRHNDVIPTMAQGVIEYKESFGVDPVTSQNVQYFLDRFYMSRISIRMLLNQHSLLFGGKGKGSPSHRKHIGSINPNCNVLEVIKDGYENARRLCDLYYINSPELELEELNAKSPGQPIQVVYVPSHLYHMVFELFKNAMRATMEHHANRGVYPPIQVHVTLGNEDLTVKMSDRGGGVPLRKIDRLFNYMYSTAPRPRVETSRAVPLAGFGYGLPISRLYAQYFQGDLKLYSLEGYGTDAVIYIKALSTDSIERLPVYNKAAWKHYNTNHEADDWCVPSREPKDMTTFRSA
Sequence of Flag-tagged wild type (WT) PDK1 (not specifically T346-phosphorylated: from normoxic PC3 cells, or dephosphorylated before the kinase assay) (chain, as listed by the source): as above
Sequence of purified recombinant His-tagged PDK3 (Abcam), Q15120 (Q15120 whole entry, looked up): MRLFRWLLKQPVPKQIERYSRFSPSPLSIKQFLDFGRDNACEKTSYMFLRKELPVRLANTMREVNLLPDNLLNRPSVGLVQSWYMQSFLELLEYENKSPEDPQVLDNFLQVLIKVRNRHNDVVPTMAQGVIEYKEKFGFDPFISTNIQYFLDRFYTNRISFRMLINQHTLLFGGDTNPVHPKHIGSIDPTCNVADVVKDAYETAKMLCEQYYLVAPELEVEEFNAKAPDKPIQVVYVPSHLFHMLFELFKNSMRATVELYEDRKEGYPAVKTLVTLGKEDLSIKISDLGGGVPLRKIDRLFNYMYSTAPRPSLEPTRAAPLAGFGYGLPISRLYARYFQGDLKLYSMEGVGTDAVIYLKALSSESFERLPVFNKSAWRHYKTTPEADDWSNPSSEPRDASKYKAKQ
Sequence of purified recombinant His-tagged PDK4 (Abcam), Q16654 (Q16654 10-411): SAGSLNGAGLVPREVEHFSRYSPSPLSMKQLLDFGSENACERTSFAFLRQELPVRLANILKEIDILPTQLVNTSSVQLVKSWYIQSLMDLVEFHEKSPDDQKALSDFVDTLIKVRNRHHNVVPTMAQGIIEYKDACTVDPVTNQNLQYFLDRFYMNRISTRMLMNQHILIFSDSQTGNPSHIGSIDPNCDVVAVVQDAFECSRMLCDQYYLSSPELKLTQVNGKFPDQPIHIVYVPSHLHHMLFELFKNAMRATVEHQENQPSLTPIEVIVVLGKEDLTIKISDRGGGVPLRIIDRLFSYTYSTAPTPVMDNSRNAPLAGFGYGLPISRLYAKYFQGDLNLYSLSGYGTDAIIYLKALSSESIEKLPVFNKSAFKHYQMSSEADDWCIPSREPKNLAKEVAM

B1: kinase active Akt2 (SignalChem) (protein)
chain: MNEVSVIKEGWLHKRGEYIKTWRPRYFLLKSDGSFIGYKERPEAPDQTLPPLNNFSVAECQLMKTERPRPNTFVIRCLQWTTVIERTFHVDSPDEREEWMRAIQMVANSLKQRAPGEDPMDYKCGSPSDSSTTEEMEVAVSKARAKVTMNDFDYLKLLGKGTFGKVILVREKATGRYYAMKILRKEVIIAKDEVAHTVTESRVLQNTRHPFLTALKYAFQTHDRLCFVMEYANGGELFFHLSRERVFTEERARFYGAEIVSALEYLHSRDVVYRDIKLENLMLDKDGHIKITDFGLCKEGISDGATMKTFCGTPEYLAPEVLEDNDYGRAVDWWGLGVVMYEMMCGRLPFYNQDHERLFELILMEEIRFPRTLSPEAKSLLAGLLKKDPKQRLGGGPSDAKEVMEHRFFLSINWQDVVQKKLLPPFKPQVTSEVDTRYFDDEFTAQSITITPPDRYDSLGLLELDQRTHFPQFSYSASIRE
[1]
  phosphorylation in a kinase assay, Western blotting with Akt cons Ab: related PDK2, PDK3 or PDK4 isoforms were unreactive
[2]
  phosphorylation in a kinase assay, Western blotting with Akt cons Ab: related PDK2, PDK3 or PDK4 isoforms were unreactive
[3]
  phosphorylation of Flag immune complexes in a kinase assay, Western blotting with Akt cons Ab: active Akt2 phosphorylated wild type (WT) PDK1
[4]
  phosphorylation in a kinase assay, Western blotting with Akt cons Ab: active Akt1 or Akt2 readily phosphorylated PDK1
  phosphorylation site by LC-MS/MS of chymotrypsin digests after a kinase assay: Thr346 (T346) was identified ... as the sole phospho-amino acid modified by Akt1 or Akt2, compared to control
[5]
  phosphorylation in a kinase assay, Western blotting with Akt cons Ab: related PDK2, PDK3 or PDK4 isoforms were unreactive
[6]
  phosphorylation of Flag immune complexes in a kinase assay, Western blotting with Akt cons Ab: but not a phosphorylation-defective Thr346→Ala (T346A) PDK1 mutant
